Test results reported in patent publication US20130230510A1.
One block for each molecule: values may come before it.

Tests used:
[1] = target: CD123 (human IL-3Rα) (human) (UniProt P26951); assay: method not stated
[2] = target: CD123 (human IL-3Rα) on cells (human) (UniProt P26951); assay: cell-based or functional assay
[3] = target: CD123 (human IL-3Rα) (human) (UniProt P26951); assay: method not stated (indicative KD)
[4] = target: CD123 (human IL-3Rα) on cells (human) (UniProt P26951); assay: cell-based or functional assay; remark: listed apart in the source

Molecule: defucosylated hCSL360 produced by kifunensine treatment (hCSL360kif) (antibody)
antibody concentration for almost complete ADCC lysis of Raji-CD123 high cells, E:T 50:1 [2]: 1 ng/mL

Molecule: chimeric antibody CSL360
% CD107a positive NK cells, RMH003 AML target cells, CSL360 10 µg/mL (FIG. 8B) [2]: 39% | % lysis, 51Cr release ADCC, CTLEN cells, E:T 10:1 [2]: 10% | % lysis, 51Cr release ADCC, CTLEN cells, E:T 100:1 [2]: 51% | % lysis, 51Cr release ADCC, SL (AML) cells, E:T 10:1 [2]: 2.4% | % lysis, 51Cr release ADCC, SL (AML) cells, E:T 100:1 [2]: 15% | % lysis, calcein release ADCC, RBH013 (AML), E:T 10:1 [2]: 0% | % lysis, calcein release ADCC, RBH013 (AML), E:T 100:1 [2]: 0% | % lysis, calcein release ADCC, RMH003 (AML), E:T 10:1 [2]: 39.2% | % lysis, calcein release ADCC, RMH003 (AML), E:T 100:1 [2]: 82.6% | % lysis, calcein release ADCC, RMH008 (AML), E:T 10:1 [2]: 59.5% | % lysis, calcein release ADCC, RMH008 (AML), E:T 100:1 [2]: 100% | % lysis, calcein release ADCC, RMH009 (B-ALL), E:T 10:1 [2]: 0% | % lysis, calcein release ADCC, RMH009 (B-ALL), E:T 100:1 [2]: 0% | % lysis, calcein release ADCC, RMH009* (B-ALL), repeat with other PBMC, E:T 10:1 [2]: 0% | % lysis, calcein release ADCC, RMH009* (B-ALL), repeat with other PBMC, E:T 100:1 [2]: 0% | % lysis, calcein release ADCC, RMH010 (AML), E:T 10:1 [2]: 4% | % lysis, calcein release ADCC, RMH010 (AML), E:T 100:1 [2]: 0% | % of NK cells expressing CD107a, E:T 1:1, target CTLEN-001 [2]: 6.7% | % of NK cells expressing CD107a, E:T 1:1, target CTLEN-008 [2]: 24% | % of NK cells expressing CD107a, E:T 1:1, target CTLEN-010 [2]: 5.7% | % of NK cells expressing CD107a, E:T 1:1, target CTLEN-011-PBMC-1 [2]: 8.1% | % of NK cells expressing CD107a, E:T 1:1, target CTLEN-011-PBMC-2 [2]: 10.5% | % of NK cells expressing CD107a, E:T 1:1, target EL4hi-002 [2]: 2.9% | % of NK cells expressing CD107a, E:T 1:1, target EL4hi-003 [2]: 15% | % of NK cells expressing CD107a, E:T 1:1, target EL4hi-004 [2]: 16% | % of NK cells expressing CD107a, E:T 1:1, target EL4hi-005 [2]: 21% | % of NK cells expressing CD107a, E:T 1:1, target EL4hi-010 [2]: 34% | % of NK cells expressing CD107a, E:T 1:1, target EL4hi-011-PBMC-1 [2]: 15.5% | % of NK cells expressing CD107a, E:T 1:1, target EL4hi-011-PBMC-2 [2]: 23.5% | % of NK cells expressing CD107a, E:T 1:1, target EL4hi/lo-001 [2]: 2.8% | % of NK cells expressing CD107a, E:T 1:1, target RBH009^a (AML) [2]: 8.5% | % of NK cells expressing CD107a, E:T 1:1, target RBH009^b (AML) [2]: 8% | % of NK cells expressing CD107a, E:T 1:1, target RBH013^a (AML) [2]: 10% | % of NK cells expressing CD107a, E:T 1:1, target RBH013^b (AML) [2]: 22% | % of NK cells expressing CD107a, E:T 1:1, target RMH003^a (AML) [2]: 30% | % of NK cells expressing CD107a, E:T 1:1, target RMH003^b (AML) [2]: 33% | % of NK cells expressing CD107a, E:T 1:1, target RMH003^c (AML) [2]: 38% | % of NK cells expressing CD107a, E:T 1:1, target RMH007 (B-ALL) [2]: 16.4% | % of NK cells expressing CD107a, E:T 1:1, target RMH008^a (AML) [2]: 9% | % of NK cells expressing CD107a, E:T 1:1, target RMH008^b (AML) [2]: 16% | % of NK cells expressing CD107a, E:T 1:1, target RMH008^c (AML) [2]: 8.7% | % of NK cells expressing CD107a, E:T 1:1, target RMH009^a (B-ALL) [2]: 3% | % of NK cells expressing CD107a, E:T 1:1, target RMH009^b (B-ALL) [2]: 1.7% | % of NK cells expressing CD107a, E:T 1:1, target RMH009^c (B-ALL) [2]: 7.4% | % of NK cells expressing CD107a, E:T 1:1, target RMH010^a (AML) [2]: 14% | % of NK cells expressing CD107a, E:T 1:1, target RMH010^b (AML) [2]: 25.5% | % of NK cells expressing CD107a, E:T 1:1, target RMH011 (AML) [2]: 6.6% | % of NK cells expressing CD107a, E:T 1:1, target TF-1 (GM-CSF) [2]: 0.7% | % of NK cells expressing CD107a, E:T 1:1, target TF-1(IL-3) [2]: 1.45% | IC50, IL-3-dependent TF-1 cell proliferation [2]: 5 nM | Kd [3]: 1.06 nM

B1: monoclonal antibody (MAb) 7G3 (antibody, from another filing, V domains shown)
VH: EVQLQQSGPELVKPGASVKMSCKASGYTFTDYYMKWVKQSHGKSLEWIGDIIPSNGATFYNQKFKGKATLTVDRSSSTAYMHLNSLTSEDSAVYYCTRSHLLRASWFAYWGQGTLVTVSA
VL: DFVMTQSPSSLTVTAGEKVTMSCKSSQSLLNSGNQKNYLTWYLQKPGQPPKLLIYWASTRESGVPDRFTGSGSGTDFTLTISSVQAEDLAVYYCQNDYSYPYTFGGGTKLEIKR
IL-3 (1 nM)-stimulated CD131 tyrosine phosphorylation, STAT-5 and Akt activation in TF-1 cells; 7G3 concentration that blocks completely [4]: 100 nM

The next lines start with the values.

fold decrease in affinity compared to the chimeric MAb (CSL360) [1]: 10 fold | IC50, IL-3-dependent TF-1 cell proliferation [2]: 19 nM | Kd [3]: 12.8 nM
Molecule: humanised variant of CSL360 (hCSL360) (antibody)

antibody concentration for almost complete ADCC lysis of Raji-CD123 high cells, E:T 50:1 [2]: 1 ng/mL
Molecule: humanised CSL360S239D/A330L/I332E (hCSL360Fc3) (from UniProt P01857 1-330) (antibody)
